T1: M6HH-tagged SPD-5 amino acids 1-113 (PRGB1), not phosphorylated (C. elegans, UniProt P91349 1-113)
T1 construct: source: E. coli BL21(DE3) pLysS, purified (Ni-NTA)
T1 sequence (looked up): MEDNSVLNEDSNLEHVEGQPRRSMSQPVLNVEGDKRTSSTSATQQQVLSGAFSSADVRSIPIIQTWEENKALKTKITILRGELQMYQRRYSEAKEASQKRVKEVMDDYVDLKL

T2: untagged SPD-5 amino acids 101-473, not phosphorylated (C. elegans, UniProt P91349 101-473)
T2 construct: also called fragment containing the γTuNA-In and PRGB2; source: E. coli BL21(DE3) pLysS, purified (glutathione agarose, cut from GST with PreScission or HRV-3C protease)
T2 sequence (looked up): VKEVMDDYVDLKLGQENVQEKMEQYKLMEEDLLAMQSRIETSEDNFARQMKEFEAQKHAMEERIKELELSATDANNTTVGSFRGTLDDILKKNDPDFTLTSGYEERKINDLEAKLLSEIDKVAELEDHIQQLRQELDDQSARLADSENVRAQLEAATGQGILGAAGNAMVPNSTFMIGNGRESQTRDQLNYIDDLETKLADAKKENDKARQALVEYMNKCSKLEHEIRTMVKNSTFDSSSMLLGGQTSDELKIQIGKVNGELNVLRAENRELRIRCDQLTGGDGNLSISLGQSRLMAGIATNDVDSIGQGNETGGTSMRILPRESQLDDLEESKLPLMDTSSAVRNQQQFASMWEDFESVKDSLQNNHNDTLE


Legend:
[1] = molecular target: the molecule itself; test: SEC-MALS; Superose 6 increase 10/300 or Superdex 200 increase 10/300 in 20 mM tris-HCl pH 7.5, 50 mM NaCl, 5 mM EGTA, 2 mM MgCl2, 1 mM DTT; 120 μl of ~2.0 mg/ml protein loaded; with or without PLK1 phosphorylation
[2] = molecular target: T1, M6HH-tagged SPD-5 amino acids 1-113 …; test: pull-down; MBP pull-down: purified SPD-5 fragments mixed (2.0 μM) with or without PLK1(T194D) in kinase buffer, then 75 nM each with anti-MBP antibody in lysis buffer 2 h at 4°C and protein A beads 1 h; M6HH-tagged fragment is the bait; immunoblot; details: both partners purified
[3] = molecular target: T2, untagged SPD-5 amino acids 101-473, not …; test: as above; details: both partners purified

Binder	stoichiometry N [1]	further results
untagged SPD-5 amino acids 1-473, not phosphorylated (domain or fragment, C. elegans, UniProt P91349 1-473, looked up, also called SPD-5 N terminus; source: E. coli BL21(DE3) pLysS, purified (glutathione agarose, cut from GST with PreScission or HRV-3C protease; gel filtration)) MEDNSVLNEDSNLEHVEGQPRRSMSQPVLNVEGDKRTSSTSATQQQVLSGAFSSADVRSIPIIQTWEENKALKTKITILRGELQMYQRRYSEAKEASQKRVKEVMDDYVDLKLGQENVQEKMEQYKLMEEDLLAMQSRIETSEDNFARQMKEFEAQKHAMEERIKELELSATDANNTTVGSFRGTLDDILKKNDPDFTLTSGYEERKINDLEAKLLSEIDKVAELEDHIQQLRQELDDQSARLADSENVRAQLEAATGQGILGAAGNAMVPNSTFMIGNGRESQTRDQLNYIDDLETKLADAKKENDKARQALVEYMNKCSKLEHEIRTMVKNSTFDSSSMLLGGQTSDELKIQIGKVNGELNVLRAENRELRIRCDQLTGGDGNLSISLGQSRLMAGIATNDVDSIGQGNETGGTSMRILPRESQLDDLEESKLPLMDTSSAVRNQQQFASMWEDFESVKDSLQNNHNDTLE	2	–
M6HH-tagged SPD-5 amino acids 1-473, not phosphorylated (domain or fragment, C. elegans, UniProt P91349 1-473, looked up, source: E. coli BL21(DE3) pLysS, purified (Ni-NTA)) MEDNSVLNEDSNLEHVEGQPRRSMSQPVLNVEGDKRTSSTSATQQQVLSGAFSSADVRSIPIIQTWEENKALKTKITILRGELQMYQRRYSEAKEASQKRVKEVMDDYVDLKLGQENVQEKMEQYKLMEEDLLAMQSRIETSEDNFARQMKEFEAQKHAMEERIKELELSATDANNTTVGSFRGTLDDILKKNDPDFTLTSGYEERKINDLEAKLLSEIDKVAELEDHIQQLRQELDDQSARLADSENVRAQLEAATGQGILGAAGNAMVPNSTFMIGNGRESQTRDQLNYIDDLETKLADAKKENDKARQALVEYMNKCSKLEHEIRTMVKNSTFDSSSMLLGGQTSDELKIQIGKVNGELNVLRAENRELRIRCDQLTGGDGNLSISLGQSRLMAGIATNDVDSIGQGNETGGTSMRILPRESQLDDLEESKLPLMDTSSAVRNQQQFASMWEDFESVKDSLQNNHNDTLE	2	–
untagged SPD-5 amino acids 1-473, phosphorylated by PLK1 (domain or fragment, C. elegans, UniProt P91349 1-473, looked up, phosphorylated in vitro by PLK1; predicted sites S5, S11, S170, T178, T198, T274, T335, S339, S340, also called SPD-5 N terminus; source: E. coli BL21(DE3) pLysS, purified (glutathione agarose, cut from GST), then incubated with PLK1 and ATP) MEDNSVLNEDSNLEHVEGQPRRSMSQPVLNVEGDKRTSSTSATQQQVLSGAFSSADVRSIPIIQTWEENKALKTKITILRGELQMYQRRYSEAKEASQKRVKEVMDDYVDLKLGQENVQEKMEQYKLMEEDLLAMQSRIETSEDNFARQMKEFEAQKHAMEERIKELELSATDANNTTVGSFRGTLDDILKKNDPDFTLTSGYEERKINDLEAKLLSEIDKVAELEDHIQQLRQELDDQSARLADSENVRAQLEAATGQGILGAAGNAMVPNSTFMIGNGRESQTRDQLNYIDDLETKLADAKKENDKARQALVEYMNKCSKLEHEIRTMVKNSTFDSSSMLLGGQTSDELKIQIGKVNGELNVLRAENRELRIRCDQLTGGDGNLSISLGQSRLMAGIATNDVDSIGQGNETGGTSMRILPRESQLDDLEESKLPLMDTSSAVRNQQQFASMWEDFESVKDSLQNNHNDTLE	2	–
Halo-tagged SPD-5 amino acids 135-200, not phosphorylated (domain or fragment, C. elegans, UniProt P91349 135-200, looked up, source: E. coli BL21(DE3) pLysS, purified (Ni-NTA)) MQSRIETSEDNFARQMKEFEAQKHAMEERIKELELSATDANNTTVGSFRGTLDDILKKNDPDFTLT	–	binding result [2]: binds
M6HH-tagged SPD-5 amino acids 1-345, not phosphorylated (domain or fragment, C. elegans, UniProt P91349 1-345, looked up, source: E. coli BL21(DE3) pLysS, purified (Ni-NTA)) MEDNSVLNEDSNLEHVEGQPRRSMSQPVLNVEGDKRTSSTSATQQQVLSGAFSSADVRSIPIIQTWEENKALKTKITILRGELQMYQRRYSEAKEASQKRVKEVMDDYVDLKLGQENVQEKMEQYKLMEEDLLAMQSRIETSEDNFARQMKEFEAQKHAMEERIKELELSATDANNTTVGSFRGTLDDILKKNDPDFTLTSGYEERKINDLEAKLLSEIDKVAELEDHIQQLRQELDDQSARLADSENVRAQLEAATGQGILGAAGNAMVPNSTFMIGNGRESQTRDQLNYIDDLETKLADAKKENDKARQALVEYMNKCSKLEHEIRTMVKNSTFDSSSMLLGG	2	–
M6HH-tagged SPD-5 amino acids 1-101 (PRGB1), not phosphorylated (domain or fragment, C. elegans, UniProt P91349 1-101, looked up, source: E. coli BL21(DE3) pLysS, purified (Ni-NTA)) MEDNSVLNEDSNLEHVEGQPRRSMSQPVLNVEGDKRTSSTSATQQQVLSGAFSSADVRSIPIIQTWEENKALKTKITILRGELQMYQRRYSEAKEASQKRV	–	binding result [3]: binds

Reference: article PMC13215203, “Phosphorylation remodels the mitotic centrosome matrix to generate bipartite γ-tubulin complex docking sites” (Science Advances, 2026)
